Experimental data published in the Human Domainome abundance scans (Beltran et al. 2025).

B1: Bromodomain adjacent to zinc finger domain protein 2B, residues 1927 to 1982; numbered along this chain, Q9UIF8 (parent)
chain: KSIMKVYCQICRKGDNEELLLLCDGCDKGCHTYCHRPKITTIPDGDWFCPACIAKA

Variants of: B1
Experiment: abundance fitness (aPCA) (normalised: wild type 0, dead -1); higher = more abundant; growth selection in yeast, the domain comes from the species named
Conditions: Homo sapiens

Abundance fitness of substitutions, site by site:
G14: F -0.127 | E -0.07 | K -0.063 | V 0.035 | I -0.23 | T 0.046 | Q -0.003 | L -0.056 | Y 0.079 | D -0.056 | C -0.171 | M 0.002 | P -0.026 | A 0.011 | R 0.018 | H -0.054 | S 0.032
I10: Y -0.135 | G -0.148 | L 0.004 | S -0.055 | K -0.131 | F -0.181 | Q -0.009 | V -0.051 | T -0.01 | H 0.079 | E 0.095 | N 0.266 | M -0.047 | P -0.479 | W -0.03 | C 0.089
C23: Y -0.42
R12: Y -0.183 | E 0.008 | V -0.079 | F -0.23 | C -0.163 | K 0.043 | Q -0.041 | A 0.008 | M -0.05 | I 0.001 | W -0.256 | H -0.187 | P -0.89 | S 0.042 | D -0.021 | T -0.028 | G -0.055
L19: D -0.138 | W -0.03 | Q 0.137 | N 0.027 | K -0.016 | R -0.078 | G -0.064 | T -0.1 | C -0.071 | F -0.294 | S -0.03 | V -0.011 | P -0.08 | Y -0.067 | M 0.061 | I -0.125 | E -0.012
K28: E 0.034 | I -0.329 | W 0.008 | A -0.085 | D -0.055 | P -0.755 | H 0.04 | N -0.047 | F 0.094 | L -0.025 | Q 0.094 | M -0.002 | C -0.158 | T -0.026 | G -0.02 | S -0.089 | Y -0.035
C26: Q -0.711 | K -0.744 | W -0.931 | Y -0.706 | V -0.612 | T -0.678 | I -0.673 | E -0.676 | G -0.572 | F -0.969 | N -0.753 | L -0.819 | H -1.04 | S -0.616 | R -0.674 | D -0.676 | P -0.75 | A -0.598
D27: C -0.187 | S -0.099 | K -0.001 | T -0.08 | N -0.096 | M -0.128 | V -0.222 | R -0.127 | P -0.173 | E 0.109 | A -0.112 | G 0.023 | Y -0.085 | W -0.069
D15: Q -0.238 | M -0.406 | Y -0.452 | K -0.038 | A -0.234 | C -0.122 | I -0.221 | E 0.113 | N -0.008 | R -0.263 | W -0.279 | L -0.362 | P -0.293 | T -0.22 | G -0.099 | V -0.06 | H -0.429 | F -0.118
C11: G -1.1 | I -0.912 | A -1.03 | H -0.85 | K -0.887 | V -1.16 | D -1.05 | L -1.01 | T -1.14 | S -0.997 | F -0.961 | P -0.767 | W -1.21 | N -1.04 | M -1.08 | E -0.808 | Q -1.19 | R -0.933
N16: F -0.329 | I -0.098 | H 0 | V -0.181 | Y -0.032 | A -0.125 | E 0.018 | C -0.081 | M -0.165 | W -0.183 | S -0.008 | G -0.014 | D 0.046 | T -0.017 | L -0.116 | Q 0.01
C8: S -0.944 | T -0.902 | P -0.686 | R -1.08 | W -1.17 | Q -0.661 | N -1.11 | M -0.807 | Y -0.942
G25: N -0.16 | Y -0.221 | L -0.266 | K -0.031 | W -0.251 | T -0.09 | A -0.171 | P -0.551 | S -0.149 | F -0.33 | I -0.45 | R -0.096 | D -0.192 | Q 0.003 | H -0.124 | E -0.014
L21: P -0.524 | E -0.336 | N -0.206 | S -0.2 | K -0.005 | M -0.076 | Y -0.374 | T -0.042 | D -0.346 | H -0.37 | F -0.3 | G -0.224 | W -0.248 | A -0.117 | I -0.072
Q9: D 0.028 | W -0.203 | K -0.146 | F -0.099 | M -0.096 | R -0.195 | T -0.063 | A -0.108 | I -0.164 | V -0.149 | G -0.038 | P 0.004 | C -0.091 | N -0.041 | S 0.07 | L -0.103 | Y 0.029
D24: F -0.273 | T 0.06 | L -0.034 | G 0.155 | Y -0.669 | K -0.005 | S 0.053 | N 0.113 | P -0.05 | Q 0.08 | C 0.073 | R -0.061 | H -0.063 | A 0.048 | E 0.219 | M 0.026
E18: P -0.183 | Q -0.067 | Y -0.188 | R -0.055 | F -0.124 | W -0.266 | I -0.376 | G -0.046 | V -0.205 | T -0.011 | C -0.235 | S 0.01 | K 0.051 | A -0.011 | M -0.039 | H 0.042
L20: A -0.227 | W -0.354 | N -0.337 | C -0.011 | P -0.421 | R -0.318 | M -0.009 | K -0.138 | E -0.34 | Q -0.34 | F 0.058 | G -0.509 | T -0.094 | S -0.308 | D -0.566 | V -0.069
K13: S -0.11 | G -0.047 | Q -0.111 | F -0.24 | R -0.177 | A -0.032 | N -0.102 | T -0.164 | Y -0.271 | M -0.002 | H -0.076 | I -0.136 | D -0.047 | E -0.045 | P -0.512 | W -0.25 | V -0.138
E17: H -0.34 | F -0.363 | S -0.015 | W -0.092 | P 0.085 | D -0.038 | I -0.127 | L -0.008 | G 0.022 | N -0.139 | Y -0.409 | Q 0.103 | M -0.052 | R 0.072 | K 0.172 | C 0.005 | T -0.069
L22: V -0.034 | E 0.029 | I -0.054 | G -0.006 | S 0.01 | P -0.126 | T -0.024 | K 0.144 | Y -0.174 | C 0.008 | H -0.039 | N -0.051 | A 0.032 | M -0.067
G29: F -0.035 | H -0.167 | M -0.279 | Q -0.053 | P -0.321 | L -0.149 | D -0.378 | E -0.078 | C 0.004 | I 0.084 | N -0.013 | A -0.061
